Experimental findings from the supplement of paper PMC7125110 are described below.

B1: glmS ribozyme (parent)
chain: AUAAAAGCGCCAGAACUACAGAAAUGUAGUUGACGAGGAGGAGGUUUAUCGAAUUUUCGGCGGAUGCCUCCAAA

Holding throughout (settings): with glucosamine-6-phosphate
The variants in series [1] derive from B1. Briefly: kcat; higher = faster cleavage; RNA array. A digest of the protocol: (§1)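 Glucosamine-6-phosphate in HEPES/KCl/Mg(OAc)2 buffer, at 40 μM to 10 mM, was flowed over barcoded ribozyme variants transcribed in situ by E. coli RNA polymerase on sequenced MiSeq chips. Tracking was through a hybridised Cy3 probe at 37 °C. kobs, kcat and KM came from exponential decay fits and weighted Michaelis–Menten fits of normalised per-tile medians.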

The variants in series [2] derive from B1. Briefly: KM; higher = weaker cofactor use; RNA array. A digest of the protocol:
as §1

In series [3] the parent is B1. Nature of the series: self-cleavage kobs at 160 uM GlcN6P; higher = faster cleavage; RNA array. A digest of the protocol: as §1
The variants in series [4] derive from B1. Briefly: self-cleavage kobs at 10000 uM GlcN6P; higher = faster cleavage; RNA array. An outline of the steps: as §1
The variants in series [5] derive from B1. Briefly: self-cleavage kobs at 640 uM GlcN6P; higher = faster cleavage; RNA array. An outline of the steps: as §1
Series [6] covers variants of B1. Nature of the series: self-cleavage kobs at 2500 uM GlcN6P; higher = faster cleavage; RNA array. A digest of the protocol:
as §1

The variants in series [7] derive from B1. Briefly: self-cleavage kobs at 40 uM GlcN6P; higher = faster cleavage; RNA array. An outline of the steps:
as §1

± gives the standard error. For some assays here: Variants at the floor of the assay were thinned out. Where only a bound is given, the exact number is not on record here.

On to G32U U65A, for which, in the series with glucosamine-6-phosphate [1], the kcat (in general, the maximal rate divided by the concentration of active sites) amounted to 0.000104 ± 1.3e-05 s⁻¹. Also, in the series with glucosamine-6-phosphate [2], the KM – broadly, the concentration of substrate that gives half-maximal velocity – was determined as 5750 ± 1600 µM. In the series with glucosamine-6-phosphate [3], the “self-cleavage kobs at 160 uM GlcN6P” value was less than 1e-05 s⁻¹. For the same variant, the “self-cleavage kobs at 10000 uM GlcN6P” value in the series with glucosamine-6-phosphate [4] turned out to be 6.61e-05 ± 1.3e-05 s⁻¹.
As for U31C A53C, in the series with glucosamine-6-phosphate [1], the catalytic constant (kcat) was 0.00137 ± 0.00011 s⁻¹. In addition, in the series with glucosamine-6-phosphate [2], the KM is 2260 ± 350 µM. In the series with glucosamine-6-phosphate [3], the “self-cleavage kobs at 160 uM GlcN6P” value was 0.00011 ± 3.6e-05 s⁻¹. The “self-cleavage kobs at 640 uM GlcN6P” value in the series with glucosamine-6-phosphate [5] stood at 0.00028 ± 8e-05 s⁻¹. Besides, in the series with glucosamine-6-phosphate [6], the “self-cleavage kobs at 2500 uM GlcN6P” value was 0.0007 ± 0.00011 s⁻¹. For the same variant, the “self-cleavage kobs at 10000 uM GlcN6P” value in the series with glucosamine-6-phosphate [4] worked out at 0.00116 ± 0.0002 s⁻¹.
Take G29U U45A: the kcat in the series with glucosamine-6-phosphate [1] came out at 0.0141 ± 0.0034 s⁻¹. Besides, the KM with glucosamine-6-phosphate [2] was 2740 ± 820 µM. Moreover, the “self-cleavage kobs at 40 uM GlcN6P” value in the series with glucosamine-6-phosphate [7] amounted to 0.000225 ± 4.9e-05 s⁻¹. In the series with glucosamine-6-phosphate [3], the “self-cleavage kobs at 160 uM GlcN6P” value stood at 0.000796 ± 0.00018 s⁻¹. Further, the “self-cleavage kobs at 640 uM GlcN6P” value with glucosamine-6-phosphate [5] stood at 0.00237 ± 0.00044 s⁻¹. For the same variant, the “self-cleavage kobs at 2500 uM GlcN6P” value with glucosamine-6-phosphate [6] came out at 0.00765 ± 0.0017 s⁻¹. Besides, the “self-cleavage kobs at 10000 uM GlcN6P” value in the series with glucosamine-6-phosphate [4] was found to be 0.0103 ± 0.005 s⁻¹.
As to G13C A42C, the kcat with glucosamine-6-phosphate [1] is less than 1e-05 s⁻¹. Moreover, the “self-cleavage kobs at 40 uM GlcN6P” value with glucosamine-6-phosphate [7] is less than 1e-05 s⁻¹. For the same variant, the “self-cleavage kobs at 10000 uM GlcN6P” value with glucosamine-6-phosphate [4] is less than 1e-05 s⁻¹.
As to A53G U65G, the kcat with glucosamine-6-phosphate [1] amounted to 0.00217 ± 0.00093 s⁻¹. For the same variant, the “self-cleavage kobs at 40 uM GlcN6P” value with glucosamine-6-phosphate [7] is 9.01e-05 ± 2.5e-05 s⁻¹. The “self-cleavage kobs at 160 uM GlcN6P” value with glucosamine-6-phosphate [3] amounted to 0.000202 ± 4e-05 s⁻¹. The “self-cleavage kobs at 640 uM GlcN6P” value in the series with glucosamine-6-phosphate [5] is 0.000884 ± 0.00018 s⁻¹. Moreover, the “self-cleavage kobs at 2500 uM GlcN6P” value with glucosamine-6-phosphate [6] was 0.00134 ± 0.00033 s⁻¹.
For the variant A39U A52U, the kcat in the series with glucosamine-6-phosphate [1] is 0.000201 ± 4.1e-05 s⁻¹. In addition, the KM with glucosamine-6-phosphate [2] was found to be 3930 ± 1900 µM. In addition, the “self-cleavage kobs at 2500 uM GlcN6P” value with glucosamine-6-phosphate [6] was 9.27e-05 ± 1.2e-05 s⁻¹. Besides, the “self-cleavage kobs at 10000 uM GlcN6P” value with glucosamine-6-phosphate [4] worked out at 0.000141 ± 1.1e-05 s⁻¹.
For the variant G13U C34U, the kcat with glucosamine-6-phosphate [1] was less than 1e-05 s⁻¹. Moreover, the “self-cleavage kobs at 40 uM GlcN6P” value with glucosamine-6-phosphate [7] was less than 1e-05 s⁻¹. Further, the “self-cleavage kobs at 2500 uM GlcN6P” value in the series with glucosamine-6-phosphate [6] was less than 1e-05 s⁻¹.
For the variant A42U A52U, in the series with glucosamine-6-phosphate [1], the kcat amounted to 3e-05 ± 6.8e-07 s⁻¹. Moreover, the KM with glucosamine-6-phosphate [2] is 2350 ± 200 µM. Further, the “self-cleavage kobs at 160 uM GlcN6P” value in the series with glucosamine-6-phosphate [3] was less than 1e-05 s⁻¹. The “self-cleavage kobs at 640 uM GlcN6P” value with glucosamine-6-phosphate [5] was less than 1e-05 s⁻¹. In addition, the “self-cleavage kobs at 10000 uM GlcN6P” value with glucosamine-6-phosphate [4] came to 2.43e-05 ± 9.1e-06 s⁻¹.
Take A6U G41A: the kcat in the series with glucosamine-6-phosphate [1] amounted to 1.73e-05 ± 2.5e-06 s⁻¹. Moreover, in the series with glucosamine-6-phosphate [7], the “self-cleavage kobs at 40 uM GlcN6P” value was less than 1e-05 s⁻¹. The “self-cleavage kobs at 160 uM GlcN6P” value with glucosamine-6-phosphate [3] is less than 1e-05 s⁻¹. Also, the “self-cleavage kobs at 640 uM GlcN6P” value with glucosamine-6-phosphate [5] was less than 1e-05 s⁻¹.
A15G U54G: the kcat with glucosamine-6-phosphate [1] was determined as 0.0486 ± 0.02 s⁻¹. For the same variant, the KM with glucosamine-6-phosphate [2] came out at 2200 ± 1000 µM. The “self-cleavage kobs at 40 uM GlcN6P” value with glucosamine-6-phosphate [7] amounted to 0.000945 ± 8.8e-05 s⁻¹. Further, the “self-cleavage kobs at 160 uM GlcN6P” value with glucosamine-6-phosphate [3] was 0.00385 ± 0.00091 s⁻¹. Moreover, in the series with glucosamine-6-phosphate [5], the “self-cleavage kobs at 640 uM GlcN6P” value came to 0.00802 ± 0.0015 s⁻¹. Further, in the series with glucosamine-6-phosphate [6], the “self-cleavage kobs at 2500 uM GlcN6P” value amounted to 0.0243 ± 0.0097 s⁻¹. Also, the “self-cleavage kobs at 10000 uM GlcN6P” value with glucosamine-6-phosphate [4] is 0.0509 ± 0.011 s⁻¹.
With U55C U69C, the kcat with glucosamine-6-phosphate [1] is 0.00119 ± 0.00046 s⁻¹. Besides, in the series with glucosamine-6-phosphate [5], the “self-cleavage kobs at 640 uM GlcN6P” value stood at 6.77e-05 ± 2.8e-05 s⁻¹. The “self-cleavage kobs at 2500 uM GlcN6P” value in the series with glucosamine-6-phosphate [6] turned out to be 0.000177 ± 2.6e-05 s⁻¹. In the series with glucosamine-6-phosphate [4], the “self-cleavage kobs at 10000 uM GlcN6P” value is 0.000523 ± 0.00012 s⁻¹.
As to G38U G63A, the kcat with glucosamine-6-phosphate [1] is less than 1e-05 s⁻¹. In the series with glucosamine-6-phosphate [7], the “self-cleavage kobs at 40 uM GlcN6P” value was less than 1e-05 s⁻¹. The “self-cleavage kobs at 160 uM GlcN6P” value with glucosamine-6-phosphate [3] was less than 1e-05 s⁻¹.
As for C16A A48C, in the series with glucosamine-6-phosphate [1], the turnover number (kcat) was less than 1e-05 s⁻¹. Besides, the “self-cleavage kobs at 40 uM GlcN6P” value with glucosamine-6-phosphate [7] was less than 1e-05 s⁻¹.
For the variant U45A C67U, in the series with glucosamine-6-phosphate [1], the turnover number (kcat) worked out at 0.0622 ± 0.028 s⁻¹. In the series with glucosamine-6-phosphate [7], the “self-cleavage kobs at 40 uM GlcN6P” value came to 0.00106 ± 0.00014 s⁻¹. In addition, in the series with glucosamine-6-phosphate [3], the “self-cleavage kobs at 160 uM GlcN6P” value was found to be 0.00246 ± 0.00047 s⁻¹. The “self-cleavage kobs at 640 uM GlcN6P” value with glucosamine-6-phosphate [5] worked out at 0.0118 ± 0.0023 s⁻¹. The “self-cleavage kobs at 2500 uM GlcN6P” value with glucosamine-6-phosphate [6] is 0.033 ± 0.01 s⁻¹. Further, the “self-cleavage kobs at 10000 uM GlcN6P” value in the series with glucosamine-6-phosphate [4] was found to be 0.0465 ± 0.014 s⁻¹.
For the variant A6G U56G, the kcat with glucosamine-6-phosphate [1] came to 0.000188 ± 3.3e-05 s⁻¹. In addition, in the series with glucosamine-6-phosphate [2], the KM was 1150 ± 540 µM. Besides, the “self-cleavage kobs at 640 uM GlcN6P” value in the series with glucosamine-6-phosphate [5] turned out to be 7.97e-05 ± 1.2e-05 s⁻¹. The “self-cleavage kobs at 2500 uM GlcN6P” value with glucosamine-6-phosphate [6] amounted to 0.000107 ± 1.5e-05 s⁻¹. The “self-cleavage kobs at 10000 uM GlcN6P” value in the series with glucosamine-6-phosphate [4] was 0.000191 ± 2.3e-05 s⁻¹.
Turning to A53U U69A, the kcat in the series with glucosamine-6-phosphate [1] worked out at 0.000102 ± 1.2e-05 s⁻¹. Moreover, the “self-cleavage kobs at 40 uM GlcN6P” value in the series with glucosamine-6-phosphate [7] came out at 4.28e-05 ± 1.3e-05 s⁻¹. Also, in the series with glucosamine-6-phosphate [3], the “self-cleavage kobs at 160 uM GlcN6P” value was determined as 5.84e-05 ± 1.7e-05 s⁻¹. For the same variant, the “self-cleavage kobs at 640 uM GlcN6P” value with glucosamine-6-phosphate [5] amounted to 0.000146 ± 3.1e-05 s⁻¹. Besides, in the series with glucosamine-6-phosphate [6], the “self-cleavage kobs at 2500 uM GlcN6P” value was found to be 0.000103 ± 1.7e-05 s⁻¹. In the series with glucosamine-6-phosphate [4], the “self-cleavage kobs at 10000 uM GlcN6P” value was 9.48e-05 ± 1.3e-05 s⁻¹.
